In the DeepSol protein solubility set:

Experiment: soluble on expression in E. coli; label from the status in PepcDB or PDB records

Sequence | soluble on expression in E. coli
MEHRDIVIVGGGMVGSALGAALSGKGLSVSVLEREAPAPFAPEQAPDLRVSAISPASAAFLQTIGAWGQALAMRAAPYRRMQVWERDEAAGTLFDAAEAGVPELGHIVENRVVQLAATEALLAKGDIDYRCPAVVSDIVYRPQASQLTLSDGSRLQARLLIAADGARSQVRDAAGIGVTGWDYPMHALVLSCRIDGGQQDITWQRFTPDGPQAFLPLSGDAASLVWYHRPEEVKRLLTLGDDELIAAVSQAFPRKLPGIRELAARGSFGLTRRHAQCYVKDGVALAGDAAHTIHPLAGQGVNLGFQDAAMLARTILDAHAKGEDWASGKTLVRYQRARKPANLAMQAGMDAFCYGFANDIGPLRLLRGLGLRLADKAGPLKREAIRYALGLRALEHHHHHH | not soluble
MYYQQALMRSTVKSSVSLGGIVKYSEQFSSNDAIMSGCLPSNPWITDDTQFWDLNAKLVEIPTKMRVERWAFNFSELIRDPKGRQSFQYFLKKEFSGENLGFWEACEDLKYGDQSKVKEKAEEIYKLFLAPGARRWINIDGKTMDITVKGLKHPHRYVLDAAQTHIYMLMKKDSYARYLKSPIYKDMQAKAIDPQETTKKSSTLPFMRRHLRSSPSPVILRQLEEEAKAREAANTVDITQPGQHMAPSPHLTVYTGTCMPPSPSSPFSSSCRSPRKPFASPSRFIRRPTICPSPILVVLDSSSGLEQKGECSWSGANPGPSVTDSSEASRDTSWTRSRPRAPLKARMALSFSRFLRRGCLASPVFARVSPKCPAVSHGRVQPLGDVGQQLPRLKSKRVANFFQIKMDVPTGSGTCLMDSEDAGTGESGDRATEKEVICPWESL | not soluble
MAKLTALTLLGMGLALFDRQKSSFQTRFNVHREVTPVELPNCNLVKGIDNGSEDLEILPNGLAFISSGLKYPGIMSFDPDKSGKILLMDLNEKEPAVSELEIIGNTLDISSFNPHGISTFIDDDNTVYLLVVNHPGSSSTVEVFKFQEEEKSLLHLKTIRHKLLPSVNDIVAVGPEHFYATNDHYFIDPYLKSWEMHLGLAWSFVTYYSPNDVRVVAEGFDFANGINISPDGKYVYIAELLAHKIHVYEKHANWTLTPLRVLSFDTLVDNISVDPVTGDLWVGCHPNGMRIFFYDAENPPGSEVLRIQDILSEEPKVTVVYAENGTVLQGSTVAAVYKGKLLIGTVFHKALYCDL | soluble
MKDDIKRRIDLAAGRKRSQLVLKNAQILNVFSHEIISGDIAIDQGKIVGIGNYNGLENIDLEGKVVVPGLIDGHVHMESAMVTPGQFARAIVPRGTTTIVADPHEIANVCGIPGIEYMLKASEGMPLNVYMMLPSCVPATSFENAGANLKAKDLAPLINHEKVLGLGELMDYPGVIAGEESIIDKIMIAEGKMIDGHGPDIKEEALNAYVAAGVRTEHECSTVEEMINRLRLGMYILIREGSAARNLKTLVRGITPENMRRCLFCTDDKHPEDILEAGHIDHNVRVAIKEGLDPISAVKMATINAAECYGLKDLGAIAPGYRADLVVLDNLETFHVTKVFKDGKLVAQDGKAFFEAQSTEDHTVTQTVNAKELTPEDLVLSLETDIVNVIKLLPHSLVTQRVSRKVEVKEGTFRYHEDLDILKLAVIERHKRTGNIGLGLVEDFRLKGGAIASTVAHDSHNIIVIGDNDEDMLLAVNELNTVGGGITICSKGEILQTLSLPIAGLMAQGTMEEVNEQLKQMLEIAYKKLGINEQIDPFMTLSFLALPVIPELKLTDLGLFDVKNFRFISLNR | not soluble
MMKKTPTSTKDSLPNKEMNDLPRLASAVLPLCSQHPGQCGLFPLEKSLDAFAARYRLAEMAEHTLDVQYYIWQDDMSGRLLFSALLAAAKRGVRVRLLLDDNNTPGLDDILRLLDSHPRIEVRLFNPFSFRLLRPLGYITDFSRLNRRMHNKSFTVDGVVTLVGGRNIGDAYFGAGEEPLFSDLDVMAIGPVVEDVADDFARYWYCKSVSPLQQVLDVPEGEMADRIELPASWHNDAMTHRYLRKMESSPFINHLVDGTLPLIWAKTRLLSDDPAKGEGKAKRHSLLPQRLFDIMGSPSERIDIISSYFVPTRAGVAQLLRMVRKGVKIAILTNSLAANDVAVVHAGYARWRKKLLRYGVELYELKPTREQSSTLHDRGITGNSGASLHAKTFSIDGKTVFIGSFNFDPRSTLLNTEMGFVIESETLAQLIDKRFIQSQYDAAWQLRLDRWGRINWVDRHAKKEVILKKEPATSFWKRVMVRLASILPVEWLL | not soluble
MHHHHHHSSGVDLGTENLYFQSMSAQNNAKVAVLGASGGIGQPLSLLLKNSPLVSRLTLYDIAHTPGVAADLSHIETKAAVKGYLGPEQLPDCLKGCDVVVIPAGVPRKPGMTRDDLFNTNATIVATLTAACAQHCPEAMICVIANPVNSTIPITAEVFKKHGVYNPNKIFGVTTLDIVRANTFVAELKGLDPARVNVPVIGGHAGKTIIPLISQCTPKVDFPQDQLTALTGRIQEAGTEVVKAKAGAGSATLSMAYAGARFVFSLVDAMNGKEGVVECSFVKSQETECTYFSTPLLLGKKGIEKNLGIGKVSSFEEKMISDAIPELKASIKKGEDFVKTLK | soluble
MLRHSPSLWELVEEHVPLRERREVKRILGEAAVDLSLELRAEVAMLRALLQEARSSQAPSSRPISDPSSLLAPPPLLKDLLRQELRQLLQGLRHKAICEGRDQAQAWVQYSPRVLHFALEEPRCDLPEQEIFQMRGGGPSSGHRDLSIIKDQLNVSNIDQVARHLRGLLEEECHTLEREILILQRCLEEEYLRPCHPSEAALEPTLAELKEQKKAMEQELQASVGPSCVSPNHRQRPLGSSTQGLRPPLPLCGVAPLQCCLPAPPLEPYLRPRGQSATHRWGRQLQCSPREGPASTPMSSAAPQAPA | soluble
MGSDKIHHHHHHMDVANKIKVIDRLRLGFAVLVAKSVTFLVRSLRLGAASVLPGSIARRIEPRLLQLLSQQVQNGVIIIAGTNGKTTTALLLCTILENKGYRVCHNSTGANLENGLMTALLDSTNLVGTLDVDYAILEVDENIVPRVLKPLQPRIILCLNLFRDQLDRYGEVDTISKRWTKVISTLPRETVVIPNADDPTLSLLGQQLPQKVLFFGLNEPEHYLEAIPHAVDSIYCPQCGHSLDYQGVYLSHLGDFTCPSCGFTKSQPTLASREWSQILVGLYNKYNTLAATTAAIELGVDETTIRDTINNFQAAFGRAEDLVIDGKRVRILLSKNPVGTNETIRVVTQSTDKTTLLVLNDRTPDGTDVSWIWDVDTEKLVERGGTLVVSGDRVYDMALRLRYSEKSAQSNLNLIVEADLRQAIATALEHTPATETLHILPTYSAMLEVREVLTGRKIL | not soluble
MPFSFFSRKKPSRRFNDFYEDWSKTLTENCLPLLRQSLSSAASASVLSSNVDLVLRHLVLYYETLDLAADHNTIPYLLFPSWRNSLETPFLFLGDIHPYLLTNLLRSFIDRENQDSDDEDEETSLDLVNQPLKMTMAWKDPSDELVKRIDQIECTMRLMVPGLMDRMRKTQRSFVARVSESWVSSYQVGKKKKLTATVATASTSVDEAAKIEMEELVSIFVDANRLRKSVIMDIVGATSEHQAALFLEGLCQFLAGFKDQILLQDFEILSLPN | soluble
MGSDKIHHHHHHVYTIARLHNFGCAFLYSPLTYPLYRSWLRTLTIKGNIIAIGASVADKPVGLALAEILRDGSAKLLSIFVDPNSRCLGIGTALVHSLEEELILRNCTSIEIVYIAGKSTSLALECLLKKCNWPSAKPRMLICKTTTNDMTNAPWMKLSRMPAAYEIFPWMEITFQERVALKKQQEEKRWMASDAIPFDYEQDLEPINSIGLRYKGEVVGWLITHRTAPDTIRYTCSYVRPDIQKMGRIIPLYIRATQLQMEAGISRGTWTVSLMHTSMIAFVKKHMGPYLISLEQSMESSKLLSHL | not soluble
MSEKLKIVYRPLQELSPYAHNARTHSTEQVAQLVESIKQFGWTNPVLIDEKGEIIAGHGRVMAAEMLKMDSVPVIVLSGLTDEQKQR | soluble
KIIHIDCDCFYAALEMRDDPSLRGKALAVGGSPDKRGVVATCSYEARAYGVRSAMAMRTALKLCPDLLVVRPRFDVYRAVSKQIHAIFRDYTDLIEPLSLDEAYLDVSASPHFAGSATRIAQDIRRRVAEELHITVSAGVAPNKFLAKIASDWRKPDGLFVITPEQVDGFVAELPVAKLHGVGKVTAERLARMGIRTCADLRQGSKLSLVREFGSFGERLWGLAHGIDERPVEVDSRRQSVSVECTFDRDLPDLAACLEELPTLLEELDGRLQRLDGSYRPDKPFVKLKFHDFTQTTVEQSGAGRDLESYRQLLGQAFARGNRPVRLIGVGVRLLDLQGAHEQLR | not soluble
